Measured values from publication PMC5811048, “Application of the SSB biosensor to study in vitro transcription”.

B1: ssDNA70 (dT70) (ssDNA)
DNA: TTTTTTTTTTTTTTTTTTTTTTTTTTTTTTTTTTTTTTTTTTTTTTTTTTTTTTTTTTTTTTTTTTTTTT
B2: ssRNA70 (ssRNA)
RNA: UUAGUUGUUCGUAGUGCUCGUCUGGCUCUGGAUUACCCGCUUAGUUGUUCGUAGUGCUCGUCUGGCUCUG

Legend:
MDCC-SSB [1] = target: T1, MDCC-SSB (UniProt P0AGE0 1-178, G27C); assay: MDCC fluorescence spectra; excess ssDNA70; 3 mM MgCl2; 50 mM Tris-HCl pH 7.5, 3 mM MgCl2, 100 mM (or 200 mM) NaCl; MDCC titrations 25 C; EMSA room temperature, 20 min; conditions: protein: recombinant; tags: pET151 vector, His tag (HisTrap purified); MDCC label (at C26, implied); chain copies: 4; single strand
MDCC-SSB [2] = target: T1, MDCC-SSB; assay: MDCC fluorescence spectra; excess ssRNA70; 3 mM MgCl2; 50 mM Tris-HCl pH 7.5, 3 mM MgCl2, 100 mM (or 200 mM) NaCl; MDCC titrations 25 C; EMSA room temperature, 20 min; conditions: protein: recombinant; tags: pET151 vector, His tag (HisTrap purified); MDCC label (at C26, implied); chain copies: 4; single strand

T1 sequence (P0AGE0 whole entry G27C): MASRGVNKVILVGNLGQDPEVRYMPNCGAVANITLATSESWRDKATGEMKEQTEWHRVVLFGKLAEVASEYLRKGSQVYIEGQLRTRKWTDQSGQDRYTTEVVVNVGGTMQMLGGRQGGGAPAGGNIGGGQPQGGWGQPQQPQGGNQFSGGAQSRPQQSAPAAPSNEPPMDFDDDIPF

Binder | binding signal (MDCC-SSB [1]) | binding signal (MDCC-SSB [2])
B1 | 1.9 fold fluorescence increase | 
B2 |  | 2.1 fold fluorescence increase
